Data reported in the supplement of paper PMC10126150.
± gives the standard deviation of the averaged measurements.

test system: ATP; test: switch fluorescence ratio, 500 uM ATP over buffer (Cy3 cluster intensity, sum of 5 cycles each) (fold (ratio)); higher = stronger signal-on switching upon ATP binding; sequences stand for … in TCGTCGGCAGCGTCAGATGTGTATAAGAGACAGTTTTTTTTTTTTTTTTTTTTTTTTT…TC; settings: aptamer strand: ATP DNA aptamer (quencher-CACCTGGGGGAGTATTGCGGAGGAAGG + anchor), 100 nM annealed; ATP concentration: 500 uM
Procedure, shortened: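 Five buffer/ATP imaging cycles were run on Cy3-labelled switching-strand clusters on a modified Illumina MiSeq flow-cell, with NaOH stripping and re-annealing between cycles. In each cycle, clusters annealed to 100 nM quencher-labelled ATP aptamer were imaged in selection buffer, then after 15 min with 500 uM ATP at 22 °C. Per cluster, the fluorescence ratio is summed target-cycle over summed buffer-cycle Cy3 intensity, averaged per switch-domain sequence. Only clusters within 100-1000 RFU were kept.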
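Note: ATP exposure 15 min at 22 °C before imaging.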

Sequence	switch fluorescence ratio
TTGCACGTAT	1.08 ± 0.056
TTGCACGTTT	1.27 ± 0.19
TTGCATATAG	1.3 ± 0.065
TTGCATCTTG	1.01 ± 0.033
TTGCATGATG	0.9611 ± 0.0076
TTGCATGGGC	1.05 ± 0.063
TTGCATTTAA	1.0047 ± 0.00053
TTGCCAAGGT	1 ± 0.013
TTGCCACGGA	1.07 ± 0.051
TTGCCGGCTA	1.038 ± 0.0057
TTGCCTCGTT	1.05 ± 0.023
TTGCCTGAAA	1 ± 0.019
TTGCCTGTGT	1.039 ± 0.0012
TTGCCTGTTT	0.967 ± 0.049
TTGCGAAATC	1.44 ± 0.58
TTGCGACGCT	1.17 ± 0.13
TTGCGAGTTG	1 ± 0.021
TTGCGCGGAC	2.34 ± 1.5
TTGCGCGGGA	1.02 ± 0.072
TTGCGGAGGA	1.01 ± 0.043
TTGCGGCTGG	0.974 ± 0.031
TTGCGGGGGG	1.03 ± 0.032
TTGCGGGTGG	1.01 ± 0.028
TTGCGTATTT	0.993 ± 0.033
TTGCGTGTGG	1.048 ± 0.0046
TTGCGTTGTG	0.992 ± 0.041

Sequence	switch fluorescence ratio
TTGCTAATCA	1 ± 0.04
TTGCTAGGGC	1.01 ± 0.033
TTGCTCATAA	1 ± 0.032
TTGCTCGTGG	1.028 ± 0.0047
TTGCTGGATT	1 ± 0.033
TTGCTGGCCG	1.03 ± 0.026
TTGCTGGCGG	1 ± 0.038
TTGCTGGGCG	0.995 ± 0.026
TTGCTGGGGT	1.01 ± 0.044
TTGCTGTACG	1.04 ± 0.021
TTGCTGTGAG	0.9762 ± 0.0012
TTGCTTCAAT	0.983 ± 0.045
TTGCTTGCGT	1.01 ± 0.03
TTGCTTGTGT	0.9983 ± 0.0049
TTGCTTTAAT	0.988 ± 0.019
TTGGAAAAAG	1.1 ± 0.18
TTGGAACGGG	1.02 ± 0.011
TTGGAAGCAT	1.01 ± 0.036
TTGGAAGTAG	0.9688 ± 0.0029
TTGGAAGTTC	1 ± 0.019
TTGGAATTCA	1.02 ± 0.071
TTGGAATTCT	1.04 ± 0.081
TTGGAATTGT	1.005 ± 0.0075
TTGGACATTT	0.999 ± 0.013
TTGGACCCAT	1.02 ± 0.02
TTGGACGCAC	2.08 ± 0.12

Sequence	switch fluorescence ratio
TTGGACGGGT	1.022 ± 0.008
TTGGACTAAA	1.06 ± 0.011
TTGGACTACT	0.984 ± 0.035
TTGGACTGGG	0.948 ± 0.082
TTGGAGGCGG	0.984 ± 0.066
TTGGAGGCTC	1.03 ± 0.024
TTGGAGGTGG	0.959 ± 0.031
TTGGATAAAC	1.03 ± 0.053
TTGGATGTGT	0.9407 ± 0.001
TTGGCATGGG	0.99 ± 0.015
TTGGCCACGC	1.018 ± 0.0056
TTGGCCGGGG	1.01 ± 0.029
TTGGCCTATA	0.973 ± 0.021
TTGGCGGGGT	1.04 ± 0.081
TTGGCGTCGT	0.995 ± 0.043
TTGGCTATTT	0.9981 ± 0.0075
TTGGCTTACT	1.11 ± 0.11
TTGGCTTAGA	1.001 ± 0.01
TTGGGAAAGT	0.995 ± 0.017
TTGGGAAGAT	0.981 ± 0.018
TTGGGAAGGT	0.982 ± 0.049
TTGGGACTGT	0.978 ± 0.054
TTGGGAGCGG	0.9769 ± 0.0038
TTGGGAGGTT	0.968 ± 0.025
